Laboratory results taken from patent US20250313627A1 (FUSE BIOTHERAPEUTICS, published 2025).

Legend:
[1] = molecular target: T1, human ROR1 (Receptor Tyrosine Kinase-Like Orphan Receptor 1) on the cell surface (human, UniProt Q01973 30-937); assay: flow cytometry, LS174T cells expressing human ROR1 (low density)
T1 construct: whole, on cells; engineered into B16-F10 (high density) and LS174T (low density) cells; also called B16-F10-ROR1-H; LS174T-ROR1-L
Protocol: (§1) As shown in the tables below, mouse B16-F10 melanoma (Tables 9A-9F) or LS174T human colorectal adenocarcinoma (Tables 9G-9H) cells genetically engineered to express human ROR1 at high and low densities, respectively, were stained for flow cytometric analysis with 100 nM of humanized variants of the ROR1 specific VHHs, 5A1 or 2A11 in either a VHH-Fc format or the Ac13 format shown in FIG. 1. Cells were analyzed on a flow cytometer after the primary test article was fluorescently tagged with a goat anti human IgG-Fc specific PE secondary antibody. The positive control used was PE conjugated anti-human ROR1 clone 2A2. Negative controls included a PE labeled mouse IgG Ab, the secondary antibody only, the combination of a Hen Egg Lysozyme (HEL) specific antibody plus goat anti human IgG-Fc specific PE and Fluorescence Minus One (FMO). Other controls included the non-humanized version of 5A1-Fc (FUSE179), 2A11-Fc (FUSE112) and 5A1-Ac13 (FUSE488). Humanized variants were generated using computational design (FUSE489, FUSE497-498, FUSE563, FUSE569-570, and BI-HU9-VHH11-33), a yeast display library in which mutations were inserted into the Vernier zone residues of human framework indicated in GenBank accession number M99660 (FUSE524-525, FUSE589, FUSE597-598, FUSE537, FUSE661-662, BI-HU9-HK and BI-HU9-HK-1), and a second yeast display library in which mutations were inserted into the Vernier zone residues of human framework indicated in GenBank accession number AWH66715 and amino acid position 103 within CDR3 (FUSE559, FUSE590-596, BI-HU9-VH9-1, FUSE654-655 and FUSE661-662. Affinity matured variants of FUSE559 were also generated using computational design (F22158101-21; Table 9H).

[2] = molecular target: T2, recombinant His tagged human ROR1 (human, UniProt Q01973 30-403, limits assumed); assay: SPR (Biacore 8K), recombinant human ROR1 amine-coupled on a CM5 chip (4400 RU), analyte 200nM, 1:1 binding fit; column '1:1 binding ka (1/Ms)' [table below it]
T2 construct: Analyte in the BLI assay; also called Human ROR1-His; recombinant ROR1
Protocol: (§2) Protein test article binding to recombinant human ROR1 (Acro Biosystems, RO1-H522y) was detected on a BIAcore 8K (Cytiva) biosensor system using an SPR assay. Briefly, a carboxymethylated CM5 sensor chip was activated with 1:1 mixture of 0.4 M N-ethyl-N-(3-dimethylaminopropyl) carbodiimide and 0.1 M′ N-hydroxysuccinimide. Recombinant human ROR1 in 10 mM NaOAc (pH5) was then immobilized on the sensor chip by amine-coupling according to the manufacturer's instructions to yield the stable RU of 4400. Unreacted sites were blocked with 1M ethanolamine/HCl (pH 8). Control flow cells (blank) were activated and blocked in the absence of ROR1. Flow cells were routinely equilibrated with running buffer (PBS, 0.005% surfactant P20). Test article proteins used for assessment of binding to recombinant human ROR1 binding were diluted in HBS-EP running buffer and injected into the sensor chip at different concentrations. […] Data from duplicate assays were modeled for binding equilibrium and dot plots for 200 nM of protein test article was calculated. Association constant (ka), dissociation constant (kd) and binding affinity (KD=kd/ka) were generated from integrated software in the BIAcore 8K system.
(§3) Shown are sensorgrams of surface plasmon resonance (SPR) data generated via Biacore analysis. A summary table of binding affinity (KD), on rate (k-a) and off rate (kd) is shown below FIG. 16B.

[3] = molecular target: T1, human ROR1 (Receptor Tyrosine …); assay: flow cytometry on B16-F10 cells engineered to express human ROR1, secondary antibody to the IgG1 Fc
Protocol: As shown in FIG. 15 the apparent binding affinity (EC50-binding) of the ROR1 specific VHH-Fc incorporating either the non humanized VHH clone 5A1 (FUSE179; black circle), the humanized clone 5A1-FA9-HK1 (FUSE559; black square) or the humanized clone 5A1-HK1 (FUSE524; black triangle) was calculated. Shown is a non-linear x-y plot of binding to B16-F10 cell engineered to express human ROR1 relative to the concentration of test article used for staining. A Hen Egg Lysozyme (HEL)-specific antibody was used as the negative isotype control. Binding was measured via flow cytometry using a fluorescently labeled secondary antibody specific for the Fc domain of IgG1. A summary table of EC50s and maximum MFI is shown beneath under the graph.

[4] = molecular target: T1, human ROR1 (Receptor Tyrosine …); assay: flow cytometry, B16-F10 cells expressing human ROR1 (high density)
Protocol: as §1

[5] = molecular target: T2, recombinant His tagged human ROR1; assay: SPR (Biacore 8K), recombinant human ROR1 amine-coupled on a CM5 chip (4400 RU), analyte 200nM, 1:1 binding fit; column 'kd (1/s)' [table below it]
Protocol: as §2, §3

[6] = molecular target: T2, recombinant His tagged human ROR1; assay: SPR (Biacore 8K), recombinant human ROR1 amine-coupled on a CM5 chip (4400 RU), analyte 200nM, 1:1 binding fit [table below it]
Protocol: as §2, §3

[7] = molecular target: T1, human ROR1 (Receptor Tyrosine …); assay: flow cytometry, B16-F10 cells expressing human ROR1 (high density); remark: listed apart in the source
Protocol: as §1

[8] = molecular target: T1, human ROR1 (Receptor Tyrosine …); assay: flow cytometry, LS174T cells expressing human ROR1 (low density); remark: listed apart in the source
Protocol: as §1

[9] = molecular target: T1, human ROR1 (Receptor Tyrosine …); assay: flow cytometry on ROR1+ MDA-MB-231 cells, secondary antibody to the IgG1 Fc; table row 'Binding EC50 (nM)', the graph's axis reads 'Concentration (pM)'
[10] = molecular target: T1, human ROR1 (Receptor Tyrosine …); assay: flow cytometry, B16-F10 cells expressing human ROR1 (high density); remark: listed apart in the source
Protocol: as §1

human CD3 on T cells = molecular target: T3, human CD3 on T cells (human, UniProt P07766 23-207; P09693 23-182; P04234 22-171; P20963 22-164); assay: flow cytometry on CD3+ Jurkat NFAT Lucia cells, secondary antibody to the IgG1 Fc
T3 construct: whole, on cells; also called human CD3 on Jurkat T cells; human CD3 on T cells isolated from human PBMC

[11] = molecular target: T2, recombinant His tagged human ROR1; assay: BLI (Octet), FUSE protein on the tip, His tagged ROR1 in solution
Protocol: As shown in FIGS. 5A-5D, the binding affinities (KD) of TCEs for ROR1 were assessed. We examined the magnitude by which several TCEs and mutants thereof bind to recombinant ROR1. Kinetic binding graphs were generated via Bio-Layer Interferometry (BLI) using an Octet system. For each TCE, the biosensor tips were coated with FUSE proteins at 15 μg/ml and probed with either recombinant His tagged ROR1 at concentrations ranging from 100 pM to 10 μM. […] The binding affinity (KD), on rate (k-on) and off rate (k-dis), are summarized for ROR1 in FIG. 5D.
We further examined the impact of mutating the cysteine residues located in CDR1 and CDR3 of 2A11 VHH and 5A1 VHH.

T2 sequence (Q01973 30-403 limits assumed): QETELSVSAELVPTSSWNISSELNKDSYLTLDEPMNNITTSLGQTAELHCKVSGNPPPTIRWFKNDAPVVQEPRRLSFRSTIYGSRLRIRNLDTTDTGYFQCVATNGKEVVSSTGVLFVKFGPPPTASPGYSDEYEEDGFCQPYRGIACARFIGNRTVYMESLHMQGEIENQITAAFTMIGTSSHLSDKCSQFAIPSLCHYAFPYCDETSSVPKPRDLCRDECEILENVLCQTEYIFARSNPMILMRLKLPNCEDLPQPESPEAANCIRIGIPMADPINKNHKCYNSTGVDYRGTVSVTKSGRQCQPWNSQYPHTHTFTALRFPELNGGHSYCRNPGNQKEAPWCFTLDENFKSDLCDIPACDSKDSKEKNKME
T1 sequence (Q01973 30-937): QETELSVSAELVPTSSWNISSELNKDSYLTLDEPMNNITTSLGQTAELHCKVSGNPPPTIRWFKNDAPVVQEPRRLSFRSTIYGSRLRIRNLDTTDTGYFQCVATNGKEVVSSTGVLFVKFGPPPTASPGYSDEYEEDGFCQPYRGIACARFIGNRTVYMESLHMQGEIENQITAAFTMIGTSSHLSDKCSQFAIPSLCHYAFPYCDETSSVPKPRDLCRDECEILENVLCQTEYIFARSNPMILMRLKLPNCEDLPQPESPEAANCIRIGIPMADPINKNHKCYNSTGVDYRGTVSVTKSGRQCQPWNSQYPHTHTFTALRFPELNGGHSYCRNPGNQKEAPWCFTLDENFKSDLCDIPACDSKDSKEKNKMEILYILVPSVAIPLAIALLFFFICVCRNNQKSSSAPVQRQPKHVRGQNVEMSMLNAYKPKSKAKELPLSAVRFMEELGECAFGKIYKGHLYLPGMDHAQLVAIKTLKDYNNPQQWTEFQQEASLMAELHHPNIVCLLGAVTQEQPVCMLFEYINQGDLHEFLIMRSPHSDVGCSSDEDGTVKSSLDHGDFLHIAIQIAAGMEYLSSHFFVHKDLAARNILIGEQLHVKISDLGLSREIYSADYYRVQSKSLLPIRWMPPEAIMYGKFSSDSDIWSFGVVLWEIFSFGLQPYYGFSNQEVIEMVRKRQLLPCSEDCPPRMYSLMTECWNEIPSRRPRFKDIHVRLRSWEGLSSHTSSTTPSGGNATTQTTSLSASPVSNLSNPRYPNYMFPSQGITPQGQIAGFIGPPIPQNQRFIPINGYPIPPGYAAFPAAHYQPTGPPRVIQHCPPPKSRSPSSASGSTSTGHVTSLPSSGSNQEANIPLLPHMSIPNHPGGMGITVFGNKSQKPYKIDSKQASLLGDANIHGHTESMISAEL
T3 sequence (P07766 23-207, chain 1 of 4): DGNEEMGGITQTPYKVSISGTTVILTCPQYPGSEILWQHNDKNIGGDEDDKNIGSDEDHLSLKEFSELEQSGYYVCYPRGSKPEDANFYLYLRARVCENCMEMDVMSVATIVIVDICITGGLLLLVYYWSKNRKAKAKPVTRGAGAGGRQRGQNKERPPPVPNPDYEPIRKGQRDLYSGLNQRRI
T3 sequence (P09693 23-182, chain 2 of 4): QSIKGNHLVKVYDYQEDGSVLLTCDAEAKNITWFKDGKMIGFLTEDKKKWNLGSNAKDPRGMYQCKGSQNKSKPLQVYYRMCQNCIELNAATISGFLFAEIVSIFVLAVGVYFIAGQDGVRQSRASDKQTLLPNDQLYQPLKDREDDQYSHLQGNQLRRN
T3 sequence (P04234 22-171, chain 3 of 4): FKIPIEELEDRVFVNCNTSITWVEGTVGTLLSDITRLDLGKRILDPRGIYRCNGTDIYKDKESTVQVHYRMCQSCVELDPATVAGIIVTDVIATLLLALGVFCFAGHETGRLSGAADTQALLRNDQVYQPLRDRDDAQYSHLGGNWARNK
T3 sequence (P20963 22-164, chain 4 of 4): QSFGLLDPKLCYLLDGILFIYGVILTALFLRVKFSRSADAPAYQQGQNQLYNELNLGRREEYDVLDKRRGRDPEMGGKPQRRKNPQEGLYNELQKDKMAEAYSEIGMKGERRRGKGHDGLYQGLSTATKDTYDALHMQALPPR

B1: FUSE-559 (h5A1-FA9-HK1 Fc) (Fc fusion)
chain: EVQLLESGGGLVQPGGSLRLSCTASGYTNRLKCMGWFRQAPGKEREEIASISTGTGNTYYADSVKGRFTISRDKSRNTLYLQMNTLRAEDTAVYYCAADVRPHGTTCHYNSRGQGTQVTVSS
notes: VHH-Fc format; also called humanized clone 5A1-FA9-HK1; not shown: Fc of the VHH-Fc format
[1]
  MFI: 3120
[2]
  kon: 301000 M⁻¹ s⁻¹
[3]
  EC50: 2.31 nM
  Max MFI: 7600 MFI
[4]
  MFI: 199000
[5]
  koff: 0.00077 s⁻¹
[6]
  Kd: 2.56 nM
[7]
  MFI: 6080
[8]
  MFI: 24400

B2: FUSE-488 (5A1-Ac13) (bispecific antibody, human IgG1, lambda, L234A L235A)
heavy: EVQLVESGGGLVQPGGSLRLSCAASGFTFSTYAMNWVRQAPGKGLEWVARIRSKYNNYATYYADSVKDRFTISRDDSKNTLYLQMNSLRAEDTAVYYCARHGNFGNSYVSWFAYWGQGTMVTVSSASTKGPSVFPLAPSSKSTSGGTAALGCLVKDYFPEPVTVSWNSGALTSGVHTFPAVLQSSGLYSLSSVVTVPSSSLGTQTYICNVNHKPSNTKVDKKVEPKSCDKTHTCPPCPAPEAAGGPSVFLFPPKPKDTLMISRTPEVTCVVVDVSHEDPEVKFNWYVDGVEVHNAKTKPREEQYNSTYRVVSVLTVLHQDWLNGKEYKCKVSNKALPAPIEKTISKAKGQPREPQVYTLPPSREEMTKNQVSLSCAVKGFYPSDIAVEWESNGQPENNYKTTPPVLDSDGSFFLVSKLTVDKSRWQQGNVFSCSVMHEALHNRFTQKSLSLSPGK
chain: QVQLQESGGGSVQAGGSLKLSCTASGYTNRLKCMGWFRQAPGKEREEIATISTGTGNTYYADSVKGRFTFSQDKVKNTVYLQMNTLKPDDTGMYYCAADVRPDGTTCHYNSGGQGTQVTVSSEPKSSDKTHTCPPCPAPEAAGGPSVFLFPPKPKDTLMISRTPEVTCVVVDVSHEDPEVKFNWYVDGVEVHNAKTKPREEQYNSTYRVVSVLTVLHQDWLNGKEYKCKVSNKALPAPIEKTISKAKGQPREPQVYTLPPSREEMTKNQVSLWCLVKGFYPSDIAVEWESNGQPENNYKTTPPVLDSDGSFFLYSKLTVDKSRWQQGNVFSCSVMHEALHNHYTQKSLSLSPGK
light: QAVVTQEPSLTVSPGGTVTLTCRSSTGAVTTSNYANWVQQKPGQAPRGLIGGTNKRAPGTPARFSGSLLGGKAALTLSGVQPEDEAEYYCALWYSNLWVFGGGTKLTVLGQPKAAPSVTLFPPSSEELQANKATLVCLISDFYPGAVTVAWKADSSPVKAGVETTTPSKQSNNKYAASSYLSLTPEQWKSHRSYSCQVTHEGSTVEKTVAPTECSGGGGSGGGGSGGGGSGGGGSQVQLQESGGGSVQAGGSLKLSCTASGYTNRLKCMGWFRQAPGKEREEIATISTGTGNTYYADSVKGRFTFSQDKVKNTVYLQMNTLKPDDTGMYYCAADVRPDGTTCHYNSGGQGTQVTVSS
notes: also called humanized CD3 clone 1F3.3 x ROR1 VHH 5A1; non humanized 5A1 x 1F3-3 bsAb in format Ac13
[9]
  EC50: 19.2 nM
[10]
  MFI: 3910
Human CD3 on T cells
  EC50: 10.6 nM

B3: FUSE-454 (5A1 VHH mutant-Fc fusion protein) (Fc fusion)
chain: QVQLQESGGGSVQAGGSLKLSCTASGYTNRLKVMGWFRQAPGKEREEIATISTGTGNTYYADSVKGRFTFSQDKVKNTVYLQMNTLKPDDTGMYYCAADVRPDGTTVHYNSGGQGTQVTVSS
notes: also called mutant 5A1; 5A1-CV; not shown: human Fc
[11]
  fold lower affinity than the parent (printed FUSE-454, meant FUSE-179): > 100 fold

B4: FUSE-453 (2A11 VHH mutant-Fc fusion protein) (Fc fusion)
chain: QVQLQESGGGSVPAGGSLRLSCAASGSTYSANVMGWFRQAPGKEREEVASMSIRSGRTYYSDSVKGRFTISQDGSKNTLYLQLNSLKAEDTALYYCAAAYGGSRVVYNYRGQGTQVTVSS
notes: also called mutant 2A11; 2A11-CV; not shown: human Fc
[11]
  fold lower affinity than FUSE-112: > 100 fold
